In patent publication JP2000154149A (dated 2000):

B1: マウス抗ヒトFas抗体CH11(MBL社) (antibody, mouse IgM)
heavy: EVQLQQSGPELVKPGASVKISCKASGYTFTDYNMHWVKQSHGKSLEWIGYIYPYNGGTGYNQKFKSKATLTVDNSSSTAYMELRSLTSEDSAVYYCARSYYAMDYWGQGTSVTVSSESQSFPNVFPLVSCESPLSDKNLVAMGCLARDFLPSTISFTWNYQNNTEVIQGIRTFPTLRTGGKYLATSQVLLSPKSILEGSDEYLVCKIHYGGKNRDLHVPIPAVAEMNPNVNVFVPPRDGFSGPAPRKSKLICEATNFTPKPITVSWLKDGKLVESGFTTDPVTIENKGSTPQTYKVISTLTISEIDWLNLNVYTCRVDHRGLTFLKNVSSTCAASPSTDILTFTIPPSFADIFLSKSANLTCLVSNLATYETLNISWASQSGEPLETKIKIMESHPNGTFSAKGVASVCVEDWNNRKEFVCTVTHRDLPSPQKKFISKPNEVHKHPPAVYLLPPAREQLNLRESATVTCLVKGFSPADISVQWLQRGQLLPQEKYVTSAPMPEPGAPGFYFTHSILTVTEEEWNSGETYTCVVGHEALPHLVTERTVDKSTGKPTLYNVSLIMSDTGGTCY
light: DVVMTQSPLSLPVSLGDQASISCRSSKSLVHSNGNTYLHWYLQKPGQSPKLLIYKVSNRFSGVPDRFSGSGSGTDFTLKISRVEAEDLGVYFCSQSTHVPPAFGGGTKLEIKRADAAPTVSIFPPSSEQLTSGGASVVCFLNNFYPKDINVKWKIDGSERQNGVLNSWTDQDSKDSTYSMSSTLTLTKDEYERHNSYTCEATHKTSTSPIVKSFNRNEC
chain: DDEATILADNKCMCTRVTSRIIPSTEDPNEDIVERNIRIVVPLNNRENISDPTSPLRRNFVYHLSDVCKKCDPVEVELEDQVVTATQSNICNEDDGVPETCYMYDRNKCYTTMVPLRYHGETKMVQAALTPDSCYPD
B2: 抗ヒトFasヒト化抗体 [B] (expression product of pHμM1-1 and pHκKY2-58 in COS-7 cells; HμM heavy chain + VL-KY light chain) (antibody)
heavy: EVQLVQSGAEVKKPGASVKVSCKASGYTFTDYNMHWVKQAHGKSLEWMGYIYPYNGGTGYNQKFKSKATLTVDNSASTAYMELSSLRSEDTAVYYCARSYYAMDYWGQGTLVTVSSGSASAPTLFPLVSCENSPSDTSSVAVGCLAQDFLPDSITFSWKYKNNSDISSTRGFPSVLRGGKYAATSQVLLPSKDVMQGTDEHVVCKVQHPNGNKEKNVPLPVIAELPPKVSVFVPPRDGFFGNPRKSKLICQATGFSPRQIQVSWLREGKQVGSGVTTDQVQAEAKESGPTTYKVTSTLTIKESDWLSQSMFTCRVDHRGLTFQQNASSMCVPDQDTAIRVFAIPPSFASIFLTKSTKLTCLVTDLTTYDSVTISWTRQNGEAVKTHTNISESHPNATFSAVGEASICEDDWNSGERFTCTVTHTDLPSPLKQTISRPKGVALHRPDVYLLPPAREQLNLRESATITCLVTGFSPADVFVQWMQRGQPLSPEKYVTSAPMPEPQAPGRYFAHSILTVSEEEWNTGETYICVVAHEALPNRVTERTVDKSTGKPTLYNVSLVMSDTAGTCY
light: DVVMTQSPLSLPVTLGQPASISCRSSKSLVHSNGNTYLHWYLQKPGQSPKLLIYKVSNRFSGVPDRFSGSGSGTDFTLKISRVEAEDVGVYYCSQSTHVPPAFGQGTKVEIKRTVAAPSVFIFPPSDEQLKSGTASVVCLLNNFYPREAKVQWKVDNALQSGNSQESVTEQDSKDSTYSLSSTLTLSKADYEKHKVYACEVTHQGLSSPVTKSFNRGEC
B3: 抗ヒトFasヒト化抗体 [E] (expression product of pHμM1-1 and pHκRF2-52 in COS-7 cells; HμM heavy chain + VL-RF light chain) (antibody)
heavy: EVQLVQSGAEVKKPGASVKVSCKASGYTFTDYNMHWVKQAHGKSLEWMGYIYPYNGGTGYNQKFKSKATLTVDNSASTAYMELSSLRSEDTAVYYCARSYYAMDYWGQGTLVTVSSGSASAPTLFPLVSCENSPSDTSSVAVGCLAQDFLPDSITFSWKYKNNSDISSTRGFPSVLRGGKYAATSQVLLPSKDVMQGTDEHVVCKVQHPNGNKEKNVPLPVIAELPPKVSVFVPPRDGFFGNPRKSKLICQATGFSPRQIQVSWLREGKQVGSGVTTDQVQAEAKESGPTTYKVTSTLTIKESDWLSQSMFTCRVDHRGLTFQQNASSMCVPDQDTAIRVFAIPPSFASIFLTKSTKLTCLVTDLTTYDSVTISWTRQNGEAVKTHTNISESHPNATFSAVGEASICEDDWNSGERFTCTVTHTDLPSPLKQTISRPKGVALHRPDVYLLPPAREQLNLRESATITCLVTGFSPADVFVQWMQRGQPLSPEKYVTSAPMPEPQAPGRYFAHSILTVSEEEWNTGETYICVVAHEALPNRVTERTVDKSTGKPTLYNVSLVMSDTAGTCY
light: DVVMTQSPLSLPVTLGQPASISCRSSKSLVHSNGNTYLHWYLQKPGQSPRLLIYKVSNRFSGVPDRFSGSGSGTDFTLKISRVEAEDVGVYFCSQSTHVPPAFGQGTKVEIKRTVAAPSVFIFPPSDEQLKSGTASVVCLLNNFYPREAKVQWKVDNALQSGNSQESVTEQDSKDSTYSLSSTLTLSKADYEKHKVYACEVTHQGLSSPVTKSFNRGEC
B4: 抗ヒトFasヒト化抗体 [D] (expression product of pHμM1-1 and pHκRY2-10 in COS-7 cells; HμM heavy chain + VL-RY light chain) (antibody)
heavy: EVQLVQSGAEVKKPGASVKVSCKASGYTFTDYNMHWVKQAHGKSLEWMGYIYPYNGGTGYNQKFKSKATLTVDNSASTAYMELSSLRSEDTAVYYCARSYYAMDYWGQGTLVTVSSGSASAPTLFPLVSCENSPSDTSSVAVGCLAQDFLPDSITFSWKYKNNSDISSTRGFPSVLRGGKYAATSQVLLPSKDVMQGTDEHVVCKVQHPNGNKEKNVPLPVIAELPPKVSVFVPPRDGFFGNPRKSKLICQATGFSPRQIQVSWLREGKQVGSGVTTDQVQAEAKESGPTTYKVTSTLTIKESDWLSQSMFTCRVDHRGLTFQQNASSMCVPDQDTAIRVFAIPPSFASIFLTKSTKLTCLVTDLTTYDSVTISWTRQNGEAVKTHTNISESHPNATFSAVGEASICEDDWNSGERFTCTVTHTDLPSPLKQTISRPKGVALHRPDVYLLPPAREQLNLRESATITCLVTGFSPADVFVQWMQRGQPLSPEKYVTSAPMPEPQAPGRYFAHSILTVSEEEWNTGETYICVVAHEALPNRVTERTVDKSTGKPTLYNVSLVMSDTAGTCY
light: DVVMTQSPLSLPVTLGQPASISCRSSKSLVHSNGNTYLHWYLQKPGQSPRLLIYKVSNRFSGVPDRFSGSGSGTDFTLKISRVEAEDVGVYYCSQSTHVPPAFGQGTKVEIKRTVAAPSVFIFPPSDEQLKSGTASVVCLLNNFYPREAKVQWKVDNALQSGNSQESVTEQDSKDSTYSLSSTLTLSKADYEKHKVYACEVTHQGLSSPVTKSFNRGEC
B5: 抗ヒトFasヒト化抗体 [I] (expression product of pHμH5-1 and pHκRF2-52 in COS-7 cells; HμH heavy chain + VL-RF light chain) (antibody)
heavy: EVQLVQSGAEVKKPGASVKVSCKASGYTFTDYNMHWVRQAPGQGLEWMGYIYPYNGGTGYNQKFKSKATLTVDNSASTAYMELSSLRSEDTAVYYCARSYYAMDYWGQGTLVTVSSGSASAPTLFPLVSCENSPSDTSSVAVGCLAQDFLPDSITFSWKYKNNSDISSTRGFPSVLRGGKYAATSQVLLPSKDVMQGTDEHVVCKVQHPNGNKEKNVPLPVIAELPPKVSVFVPPRDGFFGNPRKSKLICQATGFSPRQIQVSWLREGKQVGSGVTTDQVQAEAKESGPTTYKVTSTLTIKESDWLSQSMFTCRVDHRGLTFQQNASSMCVPDQDTAIRVFAIPPSFASIFLTKSTKLTCLVTDLTTYDSVTISWTRQNGEAVKTHTNISESHPNATFSAVGEASICEDDWNSGERFTCTVTHTDLPSPLKQTISRPKGVALHRPDVYLLPPAREQLNLRESATITCLVTGFSPADVFVQWMQRGQPLSPEKYVTSAPMPEPQAPGRYFAHSILTVSEEEWNTGETYICVVAHEALPNRVTERTVDKSTGKPTLYNVSLVMSDTAGTCY
light: DVVMTQSPLSLPVTLGQPASISCRSSKSLVHSNGNTYLHWYLQKPGQSPRLLIYKVSNRFSGVPDRFSGSGSGTDFTLKISRVEAEDVGVYFCSQSTHVPPAFGQGTKVEIKRTVAAPSVFIFPPSDEQLKSGTASVVCLLNNFYPREAKVQWKVDNALQSGNSQESVTEQDSKDSTYSLSSTLTLSKADYEKHKVYACEVTHQGLSSPVTKSFNRGEC
B6: 抗ヒトFasヒト化抗体 [C] (expression product of pHμM1-1 and pHκKF2-19 in COS-7 cells; HμM heavy chain + VL-KF light chain) (antibody)
heavy: EVQLVQSGAEVKKPGASVKVSCKASGYTFTDYNMHWVKQAHGKSLEWMGYIYPYNGGTGYNQKFKSKATLTVDNSASTAYMELSSLRSEDTAVYYCARSYYAMDYWGQGTLVTVSSGSASAPTLFPLVSCENSPSDTSSVAVGCLAQDFLPDSITFSWKYKNNSDISSTRGFPSVLRGGKYAATSQVLLPSKDVMQGTDEHVVCKVQHPNGNKEKNVPLPVIAELPPKVSVFVPPRDGFFGNPRKSKLICQATGFSPRQIQVSWLREGKQVGSGVTTDQVQAEAKESGPTTYKVTSTLTIKESDWLSQSMFTCRVDHRGLTFQQNASSMCVPDQDTAIRVFAIPPSFASIFLTKSTKLTCLVTDLTTYDSVTISWTRQNGEAVKTHTNISESHPNATFSAVGEASICEDDWNSGERFTCTVTHTDLPSPLKQTISRPKGVALHRPDVYLLPPAREQLNLRESATITCLVTGFSPADVFVQWMQRGQPLSPEKYVTSAPMPEPQAPGRYFAHSILTVSEEEWNTGETYICVVAHEALPNRVTERTVDKSTGKPTLYNVSLVMSDTAGTCY
light: DVVMTQSPLSLPVTLGQPASISCRSSKSLVHSNGNTYLHWYLQKPGQSPKLLIYKVSNRFSGVPDRFSGSGSGTDFTLKISRVEAEDVGVYFCSQSTHVPPAFGQGTKVEIKRTVAAPSVFIFPPSDEQLKSGTASVVCLLNNFYPREAKVQWKVDNALQSGNSQESVTEQDSKDSTYSLSSTLTLSKADYEKHKVYACEVTHQGLSSPVTKSFNRGEC
B7: 抗ヒトFasヒト化抗体 [G] (expression product of pHμH5-1 and pHκKF2-19 in COS-7 cells; HμH heavy chain + VL-KF light chain) (antibody)
heavy: EVQLVQSGAEVKKPGASVKVSCKASGYTFTDYNMHWVRQAPGQGLEWMGYIYPYNGGTGYNQKFKSKATLTVDNSASTAYMELSSLRSEDTAVYYCARSYYAMDYWGQGTLVTVSSGSASAPTLFPLVSCENSPSDTSSVAVGCLAQDFLPDSITFSWKYKNNSDISSTRGFPSVLRGGKYAATSQVLLPSKDVMQGTDEHVVCKVQHPNGNKEKNVPLPVIAELPPKVSVFVPPRDGFFGNPRKSKLICQATGFSPRQIQVSWLREGKQVGSGVTTDQVQAEAKESGPTTYKVTSTLTIKESDWLSQSMFTCRVDHRGLTFQQNASSMCVPDQDTAIRVFAIPPSFASIFLTKSTKLTCLVTDLTTYDSVTISWTRQNGEAVKTHTNISESHPNATFSAVGEASICEDDWNSGERFTCTVTHTDLPSPLKQTISRPKGVALHRPDVYLLPPAREQLNLRESATITCLVTGFSPADVFVQWMQRGQPLSPEKYVTSAPMPEPQAPGRYFAHSILTVSEEEWNTGETYICVVAHEALPNRVTERTVDKSTGKPTLYNVSLVMSDTAGTCY
light: DVVMTQSPLSLPVTLGQPASISCRSSKSLVHSNGNTYLHWYLQKPGQSPKLLIYKVSNRFSGVPDRFSGSGSGTDFTLKISRVEAEDVGVYFCSQSTHVPPAFGQGTKVEIKRTVAAPSVFIFPPSDEQLKSGTASVVCLLNNFYPREAKVQWKVDNALQSGNSQESVTEQDSKDSTYSLSSTLTLSKADYEKHKVYACEVTHQGLSSPVTKSFNRGEC

Biological target: T1, ヒトFas抗原 on human lymphocyte cell line HPB-ALL (human, UniProt P25445 26-335)
T1 sequence (looked up): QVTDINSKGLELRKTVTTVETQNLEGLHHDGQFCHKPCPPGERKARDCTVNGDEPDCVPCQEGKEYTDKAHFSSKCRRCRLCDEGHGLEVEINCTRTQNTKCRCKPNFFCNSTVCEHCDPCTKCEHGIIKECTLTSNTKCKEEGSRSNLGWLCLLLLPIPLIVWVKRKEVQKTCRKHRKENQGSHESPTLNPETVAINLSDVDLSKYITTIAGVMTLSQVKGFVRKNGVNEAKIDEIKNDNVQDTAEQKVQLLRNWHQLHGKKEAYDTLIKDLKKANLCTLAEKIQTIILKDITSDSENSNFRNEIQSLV
Assay: cell-based or functional assay

| Binder | ED 50 (IgM concentration at which HPB-ALL cell survival is 50%), 細胞障害活性 [ng/mL] |
| --- | --- |
| B1 | 10.7 |
| B2 | 1.1 |
| B3 | 1.5 |
| B4 | 1.7 |
| B5 | 3.4 |
| B6 | 1 |
| B7 | 2.4 |
